This is an account of results in US20200087363A1 (IMMATICS BIOTECHNOLOGIES, published 2020).

Some results are limits rather than exact numbers.

The test has as its target T1, HLA-B*44:05 (human).
T1 construct: also called peptide-receptive MHC class I molecule
Nature of the test: UV peptide exchange, anti-b2m ELISA. The protocol:
Only peptide candidates that can effectively bind and stabilize the peptide-receptive MHC molecules prevent dissociation of the MHC complexes. To determine the yield of the exchange reaction, an ELISA was performed based on the detection of the light chain (β2m) of stabilized MHC complexes. The assay was performed as generally described in Rodenko et al. (Rodenko et al., 2006)
96 well MAXISorp plates (NUNC) were coated over night with 2 ug/ml streptavidin in PBS at room temperature, washed 4× and blocked for 1 h at 37° C. in 2% BSA containing blocking buffer. […] Peptide-MHC monomers of the UV-exchange reaction were diluted 100-fold in blocking buffer. Samples were incubated for 1 h at 37° C., washed four times, incubated with 2 ug/ml HRP conjugated anti-β2m for 1 h at 37° C., washed again and detected with TMB solution that is stopped with […]. Absorption was measured at 450 nm.
A general note: An ELISA detects its analyte on a solid surface through an enzyme-linked reagent.

AEANPRDLGASW came in with a peptide exchange yield of 50 to 75%. In the case of TELTEARVQVW, the peptide exchange yield lay within 50 to 75%. The molecule GESVSWHLF came in with a peptide exchange yield of 50 to 75%.

Turning to AEIEADRSYQH, the peptide exchange yield was in the range of 50 to 75%. For VEVKYEGHW, the peptide exchange yield is > 75%.

KEVDPTGHSF gave a peptide exchange yield of 50 to 75%. The molecule MEFKTLNKN yielded a peptide exchange yield of 20 to 50%.

In turn, LEVLHQGQW registered a peptide exchange yield of 50 to 75%. The same measure for SEASQSPQY: 50 to 75%; for DEINHQSL: 20 to 50%; for SEVPVDSHY: 50 to 75%. Turning to KEVDPASNTYTL, the peptide exchange yield was 20 to 50%. The molecule EVEVGEVKSW gave a peptide exchange yield of 10 to 20%. Turning to NENLDYAIL, the peptide exchange yield is > 75%. The figure for VEAQDRETW is 20 to 50%. As for VTEGAVEVKY, the peptide exchange yield fell in the range of 10 to 20%. In turn, EEAMKRLSY had a peptide exchange yield of 20 to 50%. Regarding SEVPVDSHYY, the peptide exchange yield is 50 to 75%. In the case of EMPGGPVW, the peptide exchange yield lay within 50 to 75%. For the molecule REYQEVMNSKL, the peptide exchange yield lay in the range of 50 to 75%.

For the molecule AESFTSGRHYW, the peptide exchange yield is > 75%. Turning to VEVNGVPRW, the peptide exchange yield is > 75%. The molecule RYFDENIQKFIW came in with a peptide exchange yield of 50 to 75%. On to QEIDQKRLEF, for which the peptide exchange yield was 20 to 50%. With QEPFTRPVL, the peptide exchange yield lay within 50 to 75%.

The molecule YENIPVDKV returned a peptide exchange yield of 50 to 75%. On to RESHLTEIRQY, for which the peptide exchange yield lay within 20 to 50%.
